Test system: human recombinant CXCL10 (1-77)
Sequence (chain, as listed by the source): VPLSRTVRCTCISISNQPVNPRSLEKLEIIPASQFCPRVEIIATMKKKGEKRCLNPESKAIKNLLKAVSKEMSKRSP

Row | Substance | cleavage of CXCL10 (SELDI-TOF mass analysis) | molecular weight difference after in vitro digestion (SELDI-TOF mass spectrometry)
1 | active MMP2 | MMP2 did not alter the mass of CXCL10 | –
2 | active MMP9 | MMP9 cleaved 9 amino acids from CXCL10 | –
3 | recombinant DPP4 | – | The molecular weight difference (red number) between CXCL10 (1-77) and CXCL10 (3-77) is 0.2 KDa, corresponding to a 2 amino-acid difference

Reference: patent US20100040577
